Data reported in US20220153847A1 (Chugai, published 2022).
Positions count from the first letter of the chain named.

B1: DQN0344xx//DQN0385ee (bispecific antibody, human IgG1, kappa)
heavy 1: QSLEESGGGLVKPGGTLTLTCTASGFSFSSSYWMCWVRQAPGKGLEWVACVYGGSDTTYYASWTKGRFTISKGSSTTVALQVTSLTAADTATYFCARDPLNYYYYGELNLWGPGTLVTVSSASTKGPSVFPLAPSSKSTSGGTAALGCLVKDYFPEPVTVSWNSGALTSGVHTFPAVLQSSGLYSLSSVVTVPSSSLGTQTYICNVNHKPSNTKVDKRVEPKSCDKTHTCPPCPAPELRRGPSVFLFPPKPKDTLMISRTPEVTCVVVDVSHEDPEVKFNWYVDGVEVHNAKTKPREEQYNSTYRVVSVLTVLHQDWLNGKEYKCKVSNKALPAPIEKTISKAKGQPREPQVYTLPPSREEMTKNQVSLTCLVKGFYPSDIAVEWESNGQPENNYKTTPPYLDSDGSFFLYSKLTVDKSRWQQGNVFSCSVMHEALHNHYTQESLSLSP
light 1: AVVLTQTASPVSAAVGGTVTIRCQATENIYSGLAWYQQKPGQPPKVLIYYVSTLASGVPSRFKGSGSGTEYTLTISGVQCDDAATYYCQTYHDISNVTFGGGTKVEIKRTVAAPSVFIFPPSDEQLKSGTASVVCLLNNFYPREAKVQWKVDNALQSGNSQESVTEQDSKDCTYSLSSTLTLSKADYEKHKVYACEVTHQGLSSPVTKSFNRGEC
heavy 2: QEQLEESGGDLVKPGASLTLTCTASGFSFYSSYWICWVRQAPGKGLEWIACIDTGSGSIDYASWVNGRFTISKTSSTTVTLQMTSLTVADTATYFCARDIGIDYNFWGPGTLVTVSSASTKGPSVFPLAPSSKSTSGGTAALGCLVKDYFPEPVTVSWNSGALTSGVHTFPAVLQSSGLYSLSSVVTVPSSSLGTQTYICNVNHKPSNTKVDKRVEPKSCDKTHTCPPCPAPELRRGPSVFLFPPKPKDTLMISRTPEVTCVVVDVSHEDPEVKFNWYVDGVEVHNAKTKPREEQYNSTYRVVSVLTVLHQDWLNGKEYKCKVSNKALPAPIEKTISKAKGQPREPQVYTLPPSRKEMTKNQVSLTCLVKGFYPSDIAVEWESNGQPENNYKTTPPYLDSDGSFFLYSKLTVDKSRWQQGNVFSCSVMHEALHNHYTQKSLSLSP
light 2: AFELTQTPSFVEAAVGGTVTIKCQATQSISSYLNWYQQKPGQPPKLLIYYASTLASGVPSRFKGSGSGTEFSLTISGVECADAATYYCHYGISYVSFGGGTKVEIKRTVAAPSVFIFPPSDEQLKSGTASVVCLLNNFYPREAKVQWKVDNALQSGNSQESVTEQDSKDCTYSLSSTLTLSKADYEKHKVYACEVTHQGLSSPVTKSFNRGEC
B2: DQN0385ee//IC17 (bispecific antibody, human IgG1, kappa)
heavy 1: B1 heavy 2 with K356E, K439E
light 1: B1 light 2
heavy 2: QVQLQQSGPQLVRPGASVKISCKASGYSFTSYWMHWVNQRPGQGLEWIGMIDPSYSETRLNQKFKDKATLTVDKSSSTAYMQLSSPTSEDSAVYYCALYGNYFDYWGQGTTLTVSSASTKGPSVFPLAPSSKSTSGGTAALGCLVKDYFPEPVTVSWNSGALTSGVHTFPAVLQSSGLYSLSSVVTVPSSSLGTQTYICNVNHKPSNTKVDKRVEPKSCDKTHTCPPCPAPELRRGPSVFLFPPKPKDTLMISRTPEVTCVVVDVSHEDPEVKFNWYVDGVEVHNAKTKPREEQYNSTYRVVSVLTVLHQDWLNGKEYKCKVSNKALPAPIEKTISKAKGQPREPQVYTLPPSRKEMTKNQVSLTCLVKGFYPSDIAVEWESNGQPENNYKTTPPYLDSDGSFFLYSKLTVDKSRWQQGNVFSCSVMHEALHNHYTQKSLSLSP
light 2: DIQMTQSSSSFSVSLGDRVTITCKASEDIYNRLAWYQQKPGNAPRLLISGATSLETGVPSRFSGSGSGKDYTLSITSLQTEDVATYYCQQYWSTPYTFGGGTKLEVKRTVAAPSVFIFPPSDEQLKSGTASVVCLLNNFYPREAKVQWKVDNALQSGNSQESVTEQDSKDSTYSLSSTLTLSKADYEKHKVYACEVTHQGLSSPVTKSFNRGEC

How the values were obtained:
[1] = target: DQ2.5/alpha 1 gliadin peptide on IHW9023 cells (human); experiment: cell-based or functional assay
[2] = target: DQ2.5/alpha 2 gliadin peptide on IHW9023 cells (human); experiment: cell-based or functional assay
[3] = target: DQ2.5/omega 1 gliadin peptide on IHW9023 cells (human); experiment: cell-based or functional assay
[4] = target: DQ2.5/omega 2 gliadin peptide on IHW9023 cells (human); experiment: cell-based or functional assay
[5] = target: DQ2.5/gamma 1 gliadin peptide on IHW9023 cells (human); experiment: cell-based or functional assay
[6] = target: DQ2.5/BC hordein peptide on IHW9023 cells (human); experiment: cell-based or functional assay
[7] = target: DQ2.5/alpha 1b gliadin peptide on IHW9023 cells (human); experiment: cell-based or functional assay
[8] = target: DQ2.5/gamma 4a gliadin peptide on IHW9023 cells (human); experiment: cell-based or functional assay
[9] = target: T1, HLA-DQ2.5/33mer gliadin peptide complex on Ba/F3 cells (human); experiment: FACS, Ba/F3 cells; IC17=0%, DQN0139bb//IC17=100%;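 further: flow cytometry binding of anti-HLA-DQ antibodies at 5 µg/mL, incubated 30 min at room temperature with Ba/F3 lines presenting HLA-DQ/peptide complexes; antibody tested at 5 microgram/mL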
T1 construct: whole, on cells; also called Ba/F3-HLA-DQ2.5/33mer gliadin
Excerpt: (§1) The binding of anti-HLA-DQ antibodies to Ba/F3-HLA-DQ2.5, Ba/F3-HLA-DQ2.2, Ba/F3-HLA-DQ7.5, Ba/F3-HLA-DQ8, Ba/F3-HLA-DQ5.1, Ba/F3-HLA-DQ6.3, Ba/F3-HLA-DQ7.3, Ba/F3-HLA-DR, Ba/F3-HLA-DP, Ba/F3-HLA-DQ2.5/CLIP, Ba/F3-HLA-DQ2.5/HBV, Ba/F3-HLA-DQ2.5/Salmonella, Ba/F3-HLA-DQ2.5/TPO, Ba/F3-HLA-DQ2.5/M. bovis, Ba/F3-HLA-DQ2.5/alpha 1 gliadin, Ba/F3-HLA-DQ2.5/alpha 2 gliadin, Ba/F3-HLA-DQ2.5/gamma 1 gliadin, Ba/F3-HLA-DQ2.5/gamma 2 gliadin, Ba/F3-HLA-DQ2.5/omega 1 gliadin, Ba/F3-HLA-DQ2.5/omega 2 gliadin, Ba/F3-HLA-DQ2.5/BC hordein, Ba/F3-HLA-DQ2.5/alpha 3 gliadin, Ba/F3-HLA-DQ2.5/alpha 1b gliadin, Ba/F3-HLA-DQ2.5/gamma 4b gliadin, Ba/F3-HLA-DQ2.5/avenin 1, Ba/F3-HLA-DQ2.5/avenin 2, Ba/F3-HLA-DQ2.5/avenin 3, Ba/F3-HLA-DQ2.5/hordein 1, Ba/F3-HLA-DQ2.5/hordein 2, Ba/F3-HLA-DQ2.5/secalin 1, Ba/F3-HLA-DQ2.5/secalin 2, Ba/F3-HLA-DQ2.5/14mer 1, Ba/F3-HLA-DQ2.5/33mer gliadin, Ba/F3-HLA-DQ2.5/26mer gliadin, was tested. 5 microgram/mL of each of the anti-HLA-DQ antibodies was incubated with each cell line for 30 minutes at room temperature and washed with FACS buffer (2% FBS, 2 mM EDTA in PBS).

HLA-DP on Ba/F3 cells = target: T2, HLA-DP on Ba/F3 cells (human, UniProt P20036 29-222; P04440 30-225, limits assumed); experiment: FACS on Ba/F3-HLA-DP cells, single antibody concentration, goat F(ab')2 anti-human IgG-PE
T2 construct: whole, on cells; also called Ba/F3-HLA-DP
T2 sequence (P20036 29-222 limits assumed, chain 1 of 4, other chains not shown): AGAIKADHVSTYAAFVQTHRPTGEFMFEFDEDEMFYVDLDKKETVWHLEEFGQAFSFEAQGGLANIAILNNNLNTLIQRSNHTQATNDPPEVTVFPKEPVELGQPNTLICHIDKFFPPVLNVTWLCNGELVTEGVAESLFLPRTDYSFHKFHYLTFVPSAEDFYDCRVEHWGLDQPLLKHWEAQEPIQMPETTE
T2 sequence (P04440 30-225 limits assumed, chain 2 of 4, other chains not shown): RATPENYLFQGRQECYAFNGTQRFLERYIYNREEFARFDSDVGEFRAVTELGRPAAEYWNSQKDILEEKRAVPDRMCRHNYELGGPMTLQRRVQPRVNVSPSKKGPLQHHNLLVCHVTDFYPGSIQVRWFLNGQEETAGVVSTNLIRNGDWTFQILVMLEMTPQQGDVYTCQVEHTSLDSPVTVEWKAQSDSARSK

HLA-DR on Ba/F3 cells = target: T3, HLA-DR on Ba/F3 cells (human, UniProt P01903 26-216; P79483 30-227, limits assumed); experiment: FACS on Ba/F3-HLA-DR cells, single antibody concentration, goat F(ab')2 anti-human IgG-PE
T3 construct: whole, on cells; also called Ba/F3-HLA-DR
T3 MHC II alpha: not shown
T3 MHC II beta: not shown

HLA-DQ5.1 on Ba/F3 cells = target: T4, HLA-DQ5.1 on Ba/F3 cells (human, limits assumed); experiment: FACS on Ba/F3-HLA-DQ5.1 cells, single antibody concentration, goat F(ab')2 anti-human IgG-PE
T4 construct: whole, on cells; also called Ba/F3-HLA-DQ5.1
T4 MHC II alpha: not shown
T4 MHC II beta: not shown

HLA-DQ6.3 on Ba/F3 cells = target: T5, HLA-DQ6.3 on Ba/F3 cells (human, UniProt P01920 33-230, limits assumed); experiment: FACS on Ba/F3-HLA-DQ6.3 cells, single antibody concentration, goat F(ab')2 anti-human IgG-PE
T5 construct: whole, on cells; also called Ba/F3-HLA-DQ6.3
T5 MHC II alpha: not shown
T5 MHC II beta: not shown

[10] = target: HLA-DQ2.5/33mer gliadin peptide on IHW9088 cells (human); experiment: cell-based or functional assay
HLA-DQ2.2 on Ba/F3 cells = target: T6, HLA-DQ2.2 on Ba/F3 cells (human, UniProt P01909 24-216, limits assumed); experiment: FACS, Ba/F3 cells; IC17=0%, DQN0139bb//IC17=100%;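 further: flow cytometry binding of anti-HLA-DQ antibodies at 5 µg/mL, incubated 30 min at room temperature with Ba/F3 lines presenting HLA-DQ/peptide complexes; antibody tested at 5 microgram/mL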
T6 construct: whole, on cells; also called Ba/F3-HLA-DQ2.2
Excerpt: as §1
T6 MHC II alpha: not shown
T6 MHC II beta: not shown

HLA-DQ7.5 on Ba/F3 cells = target: T7, HLA-DQ7.5 on Ba/F3 cells (human, UniProt P01909 24-216; P01920 33-230, limits assumed); experiment: FACS, Ba/F3 cells; IC17=0%, DQN0139bb//IC17=100%;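 further: flow cytometry binding of anti-HLA-DQ antibodies at 5 µg/mL, incubated 30 min at room temperature with Ba/F3 lines presenting HLA-DQ/peptide complexes; antibody tested at 5 microgram/mL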
T7 construct: whole, on cells; also called Ba/F3-HLA-DQ7.5
Excerpt: as §1

HLA-DQ8 on Ba/F3 cells = target: T8, HLA-DQ8 on Ba/F3 cells (human, UniProt P01909 24-216; P01920 33-230, limits assumed); experiment: FACS, Ba/F3 cells; IC17=0%, DQN0139bb//IC17=100%;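 further: flow cytometry binding of anti-HLA-DQ antibodies at 5 µg/mL, incubated 30 min at room temperature with Ba/F3 lines presenting HLA-DQ/peptide complexes; antibody tested at 5 microgram/mL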
T8 construct: whole, on cells; also called Ba/F3-HLA-DQ8
Excerpt: as §1
T8 MHC II alpha: not shown
T8 MHC II beta: not shown

HLA-DQ7.3 on Ba/F3 cells = target: T9, HLA-DQ7.3 on Ba/F3 cells (human, UniProt P01909 24-216; P01920 33-230, limits assumed); experiment: FACS, Ba/F3 cells; IC17=0%, DQN0139bb//IC17=100%
T9 construct: whole, on cells; also called Ba/F3-HLA-DQ7.3
Excerpt: as §1
T9 MHC II alpha: not shown
T9 MHC II beta: not shown

HLA-DQ2.5 on Ba/F3 cells = target: T10, HLA-DQ2.5 on Ba/F3 cells (human, UniProt P01909 24-216, limits assumed); experiment: FACS, Ba/F3 cells; IC17=0%, DQN0139bb//IC17=100%
T10 construct: whole, on cells; also called Ba/F3-HLA-DQ2.5
Excerpt: as §1

Row | Binder | IC50, Jurkat NFAT-Luc T cell activation [1] [µg/mL] | IC50, Jurkat NFAT-Luc T cell activation [2] [µg/mL] | IC50, Jurkat NFAT-Luc T cell activation [3] [µg/mL] | IC50, Jurkat NFAT-Luc T cell activation [4] [µg/mL] | IC50, Jurkat NFAT-Luc T cell activation [5] [µg/mL] | IC50, Jurkat NFAT-Luc T cell activation [6] [µg/mL] | IC50, Jurkat NFAT-Luc T cell activation [7] [µg/mL] | IC50, Jurkat NFAT-Luc T cell activation [8] [µg/mL] | % MFI [9] [%] | binding result (HLA-DP on Ba/F3 cells) | binding result (HLA-DR on Ba/F3 cells) | binding result (HLA-DQ5.1 on Ba/F3 cells) | binding result (HLA-DQ6.3 on Ba/F3 cells) | IC50 (read off the curve) [10] [microgram/mL] | % MFI (HLA-DQ2.2 on Ba/F3 cells) [%] | % MFI (HLA-DQ7.5 on Ba/F3 cells) [%] | % MFI (HLA-DQ8 on Ba/F3 cells) [%] | % MFI (HLA-DQ7.3 on Ba/F3 cells) [%] | % MFI (HLA-DQ2.5 on Ba/F3 cells) [%]
1 | B1 | 0.019 | 0.000606 | 0.0177 | 0.00323 | 0.0469 | 0.0331 | 0.0594 | 0.892 | 91.3 | no binding (tested: 5 microgram/mL) | no binding (tested: 5 microgram/mL) | no binding (tested: 5 microgram/mL) | no binding (tested: 5 microgram/mL) | – | – | – | – | – | –
2 | B2 | – | – | – | – | – | – | – | – | – | – | – | – | – | ~0.06 | 0.3 | 0.1 | 0.1 | 0.1 | 0.1
